Laboratory results reported in the DeepSol protein solubility set.

Experiment: soluble on expression in E. coli; label from the status in PepcDB or PDB records

Question: With “MGHHHHHHSHMQEWLYGEKGYYRKALIGQKGDFYTSVSVSKFFGGAVAFYIIKLLEEEKLFLPLKIVEIGSHHGHFLSDIASFLNALSVGVMEQCAFVSCEPLKELQKLQRTIFKQATQLDLMICDLKDLDFKGHENAFVVSNELFDAFACEIVKDNKMLFIAHDHKGVWGAIDEPTKELLKNLDLKQGCAPLFLEAFIKDLLEKLNEASSWVFLSFDYGDETERKDMHLRAFKNHQALDFKDILNNLASLYQQSDLTYDVNFSLVRFLFEKHHAQFSFFKTQANALLDMGLMGLLETFSKSVGYERYLKEAAKIKPLISPGGLGERFKALEFVKKNKM” as the sequence, how does the “soluble on expression in E. coli” value read?
Answer: not soluble

Question: Which “soluble on expression in E. coli” value does the source give for “MGHHHHHHSHMRIVFDIGGSVLVPEKPDVDFITKLGYELTKISEDHEIAIVVGGGKVAREYIEVASKFNTNETFKDYLGIQITRANAMLLIAALKERAYPQVVSDFWEAWKAIQLKKIPVMGGTHPGHTTDAVSALLAEFLSADLLVVITNVDGVYTEDPKKNPNAKKIPKMKAKDLVDIVSREAGKAGVSTVIDPLAAKIIMRSGIKTYVIG” here?
Answer: not soluble

Question: Which “soluble on expression in E. coli” value does the source give for “MGHHHHHHSHMRKIDLCLSSEGSEVILATSSDEKHPPENIIDGNPETFWTTTGMFPQEFIICFHKHVRIERLVIQSYFVQTLKIEKSTSKEPVDFEQWIEKDLVHTEGQLQNEEIVAHGSATYLRFIIVSAFDHFASVHSVSAEGTVVSNLSS” here?
Answer: soluble

Question: Which “soluble on expression in E. coli” value does the source give for “MGHHHHHHSHMSCTIEKILTDAKTLLERLREHDAAAESLVDQSAALHRRVAAMREAGTALPDQYQEDASDMKDMSKYKPHILLSQENTQIRDLQQENRELWISLEEHQDALELIMSKYRKQMLQLMVAKKAVDAEPVLKAHQSHSAEIESQIDRICEMGEVMRKAVQVDDDQFCKIQEILAQLELENKELRELLSISSESHQARKENSMDTASQAIK” here?
Answer: not soluble

Question: For “MGHHHHHHSHMSGTEEAILGGRDSHPAAGGGSVLCFGQCQYTAEEYQAIQKALRQRLGPEYISSRMAGGGQKVCYIEGHRVINLANEMFGYNGWAHSITQQNVDFVDLNNGKFYVGVCAFVRVQLKVRGWSRPAARKDQWVVGEGWFIS”, which “soluble on expression in E. coli” value is on record?
Answer: not soluble

Question: With “MGHHHHHHSHMSHKNMKLKERVLIPVKQYPKFNFVGKILGPQGNTIKRLQEETGAKISVLGKGSMRDKAKEEELRKGGDPKYAHLNMDLHVFIEVFGPPCEAYALMAHAMEEVKKFLVPDMMDDICQEQFLELSYLNGVPEPS” as the sequence, how does the “soluble on expression in E. coli” value read?
Answer: not soluble

Question: Which “soluble on expression in E. coli” value does the source give for “MGHHHHHHSHMSRRKQGKPQHLSKREFSPEPLEAILTDDEPDHGPLGAPEGDHDLLTCGQCQMNFPLGDILIFIEHKRKQCNGSLCLEKAVDKPPSPSPIEMKKASNPVEVGIQVTPEDDDCLSTSSRRICPKQEHIADKLLHWRGLSSPRSAHGALIPTPGMSAEYAPQGICKDEPSSYTCTTCKQPFTSAWFLLQHAQNTHGLRIYLESEHGSPLTPRVLHTPPFGVVPRELKMCGSFRMEAREPLSSEKI” here?
Answer: not soluble

Question: For “MGHHHHHHSHMSVMFDPDTAIYPFPPKPTPLSIDEKAYYREKIKRLLKERNAVMVAHYYTDPEIQQLAEETGGCISDSLEMARFGAKHPASTLLVAGVRFMGETAKILSPEKTILMPTLQAECSLDLGCPVEEFNAFCDAHPDRTVVVYANTSAAVKARADWVVTSSIAVELIDHLDSLGEKIIWAPDKHLGRYVQKQTGGDILCWQGACIVHDEFKTQALTRLQEEYPDAAILVHPESPQAIVDMADAVGSTSQLIAAAKTLPHQRLIVATDRGIFYKMQQAVPDKELLEAPTAGEGATCRSCAHCPWMAMNGLQAIAEALEQEGSNHEVHVDERLRERALVPLNRMLDFAATLRG”, which “soluble on expression in E. coli” value is on record?
Answer: soluble

Question: With “MGHHHHHHSHMTDRQDIQKSMAAFKNLSAQCQEVRKRKELELQILTEAIRNWEGDDIKTLGNVTYMSQVLIQCAGSEEKNERYLLLFPNVLLMLSASPRMSGFIYQGKLPTTGMTITKLEDSENHRNAFEISGSMIERILVSCNNQQDLQEWVEHLQKQTKVTSVG” as the sequence, how does the “soluble on expression in E. coli” value read?
Answer: soluble

Question: With “MGHHHHHHSHMTGRLDELEKAITTQNCNTKCVTIPSTCSEIWGLSTPNTIDQWDTTGLYSFSEQTRSLDGRLQVSHRKGLPHVIYCRLWRWPDLHSHHELKAIENCEYAFNLKKDEVCVNPYHYQRVETPVLPPVLVPRHTEILTELPPLDDYTHSIPE” as the sequence, how does the “soluble on expression in E. coli” value read?
Answer: soluble
